Test results published in paper PMC8514580, “Insight into the interaction between the RNA helicase CGH-1 and EDC-3 and its implications” (Scientific Reports, 2021).
Where a chain is given by its changes, count along the chain named. Numbers in names are those of the source. Like-named read-outs stand apart in the source and are kept apart here. No end group written: not given here.

Key:
CGH-1_248-420^F355A = CGH-1_248-420^F355A (Caenorhabditis elegans, UniProt Q95YF3, F355A); details: ITC, 20 °C, pH 7.5, 150 mM NaCl, CGH-1 F355A
Procedure: Expression plasmids regarding CGH-1 and CAR-1 were constructed as previously described. In brief, the cDNA fragments encoding CGH-1 RecA2 (residues 248–420), CAR-1 FDF-TFG (residues 184–268) were amplified by PCR from C. elegans genome library and cloned into the NdeI and XhoI site of a modified pET-28a (Novagen) vector (p28a), in which a thrombin protease cleavage site was removed.
CGH-1 protein expression and purification were performed described as in our most recent paper. In brief, proteins were expressed in E. coli Gold (DE3) strain (Novagen). […] Cells were resuspended in Buffer A (20 mM Tris–HCl, pH 7.5, 1 M NaCl), and then lysed using high pressure at 4 °C. Proteins were initially purified by Ni-chelating resin (Qiagen), and further purified by size exclusion chromatography (SEC) on a Superdex 75 column (GE healthcare) in Buffer A. The purified proteins were dialyzed into Buffer B (20 mM Tris–HCl, pH 7.5, 150 mM NaCl).
A peptide containing the C. elegans EDC-3 FDF fragment (residues 235–271) and PATR-1 fragment (residues 30–67) were synthesized from GL Biochem (Shanghai, China) Co., Ltd, respectively. Stock solutions of peptide were prepared in Buffer B described above, and were adjusted to pH 7.5 ± 0.02 for subsequent experiments.
ITC assays were performed as previously described. In brief, it was carried out on a MicroCal PEAQ-ITC (Malvern) at 20 °C with the following settings: reference power, 5 μcal/s; initial delay, 60 s; stir speed, 750 rpm; spacing time, 120 s. Proteins (or its mutants) and peptides were adjusted to 0.05 mM and 0.5 mM, respectively. Experiments were initialed by injection of 1 μl each of peptide into the sample cell (200 μl) filled with protein (or its mutants) solution, followed by 18 injections of 2 μl. The ITC data were fitted with a one-binding-site model using the Origin analysis software.

human HA-tagged DDX6 = details: Co-immunoprecipitation, YFP-tagged PATL1 mutants; cited from earlier work
CGH-1_(248–420) F261A = target: T1, CGH-1_(248–420) F261A (C. elegans, UniProt Q95YF3 248-420, F261A); assay: ITC; ligand (peptide or CAR-1 fragment, 0.5 mM) injected into CGH-1_(248-420) or mutant (0.05 mM) in the cell; 20 °C; Buffer B (20 mM Tris-HCl pH 7.5, 150 mM NaCl); one-binding-site model; details: both partners purified
T1 construct: Mutant of m1 made with the MutanBEST kit; source: E. coli Gold (DE3), purified (Ni-chelating resin, SEC Superdex 75)
T1 sequence (looked up): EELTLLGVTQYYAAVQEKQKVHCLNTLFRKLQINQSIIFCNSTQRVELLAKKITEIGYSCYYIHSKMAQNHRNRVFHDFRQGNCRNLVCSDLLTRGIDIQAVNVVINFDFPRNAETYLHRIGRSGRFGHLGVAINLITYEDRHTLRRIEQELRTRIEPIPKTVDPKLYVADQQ

CGH-1_(248–420) E396A = target: T2, CGH-1_(248–420) E396A (C. elegans, UniProt Q95YF3 248-420, E396A); assay: as above; details: both partners purified
T2 construct: Mutant of m1 made with the MutanBEST kit; source: E. coli Gold (DE3), purified (Ni-chelating resin, SEC Superdex 75)
T2 sequence (looked up): T1 sequence (looked up) with A14F, E149A

CGH-1_(248–420) Q266A = target: T3, CGH-1_(248–420) Q266A (C. elegans, UniProt Q95YF3 248-420, Q266A); assay: as above; details: both partners purified
T3 construct: Mutant of m1 made with the MutanBEST kit; source: E. coli Gold (DE3), purified (Ni-chelating resin, SEC Superdex 75)
T3 sequence (looked up): T1 sequence (looked up) with A14F, Q19A

CGH-1_(248–420) H269A = target: T4, CGH-1_(248–420) H269A (C. elegans, UniProt Q95YF3 248-420, H269A); assay: as above; details: both partners purified
T4 construct: Mutant of m1 made with the MutanBEST kit; source: E. coli Gold (DE3), purified (Ni-chelating resin, SEC Superdex 75)
T4 sequence (looked up): T1 sequence (looked up) with A14F, H22A

[1] = target: T5, CGH-1_(248–420) 4A mutant (His269, Cys270, Thr273 and Leu274 to Ala) (C. elegans, UniProt Q95YF3 248-420, His269 to Ala | Cys270 to Ala | Thr273 to Ala | Leu274 to Ala); assay: as above; details: both partners purified
T5 construct: Mutant of m1 made with the MutanBEST kit; also called four-alanine mutant; source: E. coli Gold (DE3), purified (Ni-chelating resin, SEC Superdex 75)
T5 sequence (looked up): T1 sequence (looked up) with A14F, H22A, C23A, T26A, L27A

CGH-1_(248–420) R393A = target: T6, CGH-1_(248–420) R393A (C. elegans, UniProt Q95YF3 248-420, R393A); assay: as above; details: both partners purified
T6 construct: Mutant of m1 made with the MutanBEST kit; source: E. coli Gold (DE3), purified (Ni-chelating resin, SEC Superdex 75)
T6 sequence (looked up): T1 sequence (looked up) with A14F, R146A

CGH-1_(248–420) K277E = target: T7, CGH-1_(248–420) K277E (C. elegans, UniProt Q95YF3 248-420, K277E); assay: as above; details: both partners purified
T7 construct: Mutant of m1 made with the MutanBEST kit; source: E. coli Gold (DE3), purified (Ni-chelating resin, SEC Superdex 75)
T7 sequence (looked up): T1 sequence (looked up) with A14F, K30E

CGH-1_(248–420) K277A = target: T8, CGH-1_(248–420) K277A (C. elegans, UniProt Q95YF3 248-420, K277A); assay: as above; details: both partners purified
T8 construct: Mutant of m1 made with the MutanBEST kit; source: E. coli Gold (DE3), purified (Ni-chelating resin, SEC Superdex 75)
T8 sequence (looked up): T1 sequence (looked up) with A14F, K30A

[2] = target: T9, CGH-1_(248–420) wild type (CGH-1 RecA2 domain) (C. elegans, UniProt Q95YF3 248-420); assay: as above; details: both partners purified
T9 construct: Cloned into NdeI/XhoI of a modified pET-28a in which the thrombin cleavage site was removed; also called CGH-1_248-420^WT; source: E. coli Gold (DE3), purified (Ni-chelating resin, SEC Superdex 75)
T9 sequence (looked up): T1 sequence (looked up) with A14F

Sequence of CGH-1_248-420^F355A (Q95YF3 248-420 F355A): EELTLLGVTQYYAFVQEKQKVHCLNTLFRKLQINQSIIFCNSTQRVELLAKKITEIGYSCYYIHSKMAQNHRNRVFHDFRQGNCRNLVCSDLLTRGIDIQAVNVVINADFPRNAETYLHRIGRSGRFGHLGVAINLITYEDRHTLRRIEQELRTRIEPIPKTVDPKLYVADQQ

Molecule: SDEDHNIFDDEFDAANDETFGGGLDNIGENAELENYAT [PATR-1_30–67]
- KD / binding (in words) (CGH-1_248-420^F355A): almost abolished the binding
- KD / binding (in words) (CGH-1_248-420^F355A; listed as CePATR-1_30–67): almost abolishes the binding
- KD / binding (in words) (CGH-1_248-420^F355A; listed as PATR1 30-67): No binding
- KD / binding (in words) (CGH-1_248-420^F355A; listed as PATR-1 peptide): undetectable binding

B1: YFP-tagged PATL1 W46A: substitution of Trp46 to Ala in the YFP-tagged PATL1 (protein, UniProt Q86TB9 1-770, looked up, variant W46A)
Protein PAT1 homolog 1: MFRYESLEDCPLDEDEDAFQGLGEEDEEIDQFNDDTFGSGAVDDDAQEAHERLAELEEKLPVAVNEQTGNGERDEMDLLGDHEENLAERLSKMVIENELEDPAIMRAVQTRPVLQPQPGSLNSSIWDGSEVLRRIRGPLLAQEMPTVSVLEYALPQRPPQGPEDDRDLSERALPRRSTSPIIGSPPVRAVPIGTPPKQMAVPSFTQQILCPKPVHVRPPMPPRYPAPYGERMSPNQLCSVPNSSLLGHPFPPSVPPVLSPLQRAQLLGGAQLQPGRMSPSQFARVPGFVGSPLAAMNPKLLQGRVGQMLPPAPGFRAFFSAPPSATPPPQQHPPGPGPHLQNLRSQAPMFRPDTTHLHPQHRRLLHQRQQQNRSQHRNLNGAGDRGSHRSSHQDHLRKDPYANLMLQREKDWVSKIQMMQLQSTDPYLDDFYYQNYFEKLEKLSAAEEIQGDGPKKERTKLITPQVAKLEHAYKPVQFEGSLGKLTVSSVNNPRKMIDAVVTSRSEDDETKEKQVRDKRRKTLVIIEKTYSLLLDVEDYERRYLLSLEEERPALMDDRKHKICSMYDNLRGKLPGQERPSDDHFVQIMCIRKGKRMVARILPFLSTEQAADILMTTARNLPFLIKKDAQDEVLPCLLSPFSLLLYHLPSVSITSLLRQLMNLPQSAATPALSNPHLTAVLQNKFGLSLLLILLSRGEDLQSSDPATESTQNNQWTEVMFMATRELLRIPQAALAKPISIPTNLVSLFSRYVDRQKLNLLETKLQLVQGIR
modifications: YFP tag
- interaction with DDX6 (human HA-tagged DDX6): impaired the interaction

B2: EDC-3 FDF peptide (EDC-3_(235–271)) (peptide)
peptide: LADPIDFDLDSDFDFAENLKLFEKDENDDQYYETVEK
notes: Enhancer of decapping-3 (EDC-3, also called LSm16), C. elegans, FDF fragment, residues 235-271; Printed with free NH2 and COOH ends; also called EDC-3 peptide; EDC-3 FDF-FEK peptide; source: synthetic peptide (GL Biochem, Shanghai)
- Kd (CGH-1_(248–420) F261A): 1160 ± 240 nM
- dH (CGH-1_(248–420) F261A): -14.1 ± 0.48 kcal per mol
- stoichiometry N (CGH-1_(248–420) F261A): 1.09
- Kd (CGH-1_(248–420) E396A): 850 ± 110 nM
- dH (CGH-1_(248–420) E396A): -16.1 ± 0.31 kcal per mol
- stoichiometry N (CGH-1_(248–420) E396A): 1
- Kd (CGH-1_(248–420) Q266A): 1750 ± 380 nM
- dH (CGH-1_(248–420) Q266A): -12.1 ± 0.51 kcal per mol
- stoichiometry N (CGH-1_(248–420) Q266A): 1.1
- Kd (CGH-1_(248–420) H269A): 2550 ± 320 nM
- dH (CGH-1_(248–420) H269A): -12.5 ± 0.34 kcal per mol
- stoichiometry N (CGH-1_(248–420) H269A): 1.03
- Kd [1]: 8.75 ± 3.64 µM
- dH [1]: -5.94 ± 0.89 kcal per mol
- stoichiometry N [1]: 0.79
- Kd (CGH-1_(248–420) R393A): 2070 ± 280 nM
- dH (CGH-1_(248–420) R393A): -17.3 ± 0.47 kcal per mol
- stoichiometry N (CGH-1_(248–420) R393A): 0.99
- Kd (CGH-1_(248–420) K277E): 5.97 ± 0.51 µM
- dH (CGH-1_(248–420) K277E): -11.5 ± 0.3 kcal per mol
- stoichiometry N (CGH-1_(248–420) K277E): 1.12
- Kd (CGH-1_(248–420) K277A): 2740 ± 340 nM
- dH (CGH-1_(248–420) K277A): -15.2 ± 0.47 kcal per mol
- stoichiometry N (CGH-1_(248–420) K277A): 1.22
- dH [2]: -17.6 ± 0.09 kcal per mol
- stoichiometry N [2]: 1.07

B3: CAR-1 FDF-TFG (CAR-1_(184–268)) (domain or fragment, C. elegans, UniProt Q9XW17 184-268, looked up)
chain: LKFESDFDFEKANEKFQEVLVDNLEKLNIEDKAEPEVEEKKDAAFYDKKTSFFDNISCESLEKAEGKTGRPDWKKERETNQETFG
notes: thrombin site of the vector removed; also called CAR-1_184-268^WT; recombinant CAR-1_(184–268) protein; source: recombinant; plasmid in modified pET-28a
- Kd [2]: 3.03 ± 0.21 µM
- dH [2]: -27 ± 0.43 kcal per mol
- stoichiometry N [2]: 0.89
